From article PMC6347451

Molecular target: native MICU1 (in the native, disulfide-connected MICU1-2 heterodimer) (human (endogenous in HEK 293)) (UniProt Q9BPX6)
Sequence of UniProt Q9BPX6 (Q9BPX6 34-476, one chain of several): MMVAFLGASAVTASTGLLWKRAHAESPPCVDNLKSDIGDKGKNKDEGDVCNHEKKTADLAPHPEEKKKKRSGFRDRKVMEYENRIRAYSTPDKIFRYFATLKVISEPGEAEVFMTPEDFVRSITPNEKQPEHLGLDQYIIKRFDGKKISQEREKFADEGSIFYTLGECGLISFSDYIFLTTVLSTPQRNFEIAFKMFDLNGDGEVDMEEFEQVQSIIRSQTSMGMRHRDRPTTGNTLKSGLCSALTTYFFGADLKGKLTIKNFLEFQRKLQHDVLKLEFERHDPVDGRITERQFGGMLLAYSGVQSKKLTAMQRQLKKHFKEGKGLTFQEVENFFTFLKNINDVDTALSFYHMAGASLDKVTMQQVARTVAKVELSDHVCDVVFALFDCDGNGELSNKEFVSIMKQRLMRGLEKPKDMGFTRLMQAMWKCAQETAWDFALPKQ

- rate of mitochondrial ^45Ca^2+ uptake in low Ca^2+ (0.5 μM), D261A MCU expressed in MCU-KO cells (gating by MICU1 lost) (pmol/min/10^6 cells): 34
Substance: 1D4-tagged human MCU D261A (from UniProt Q8NE86 51-351) (natural protein)
